Laboratory results published in the nanobody polyreactivity screen of Harvey et al. (2022).

Assay: yeast display, Sf9 membrane polyspecificity reagent, FACS + sequencing; frameworks hold sequencing errors
Summary of the method: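 Galactose induction of a Saccharomyces cerevisiae BJ5465 synthetic nanobody display library ran 36–48 hours. The cells were then stained for 1 hour at 4 °C with 10% biotinylated, detergent-solubilized Sf9 membrane reagent, pulled down on streptavidin microbeads and FACS-sorted into low and high (top ~1%) gates on expression and reagent-binding fluorescence. Labels for polyreactivity follow the gate of origin.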

Sequence	polyreactivity (PSR sort gate)
QVQLVASGGGLVQAGGSLRLSCAASGSTLDVYAMGWYRQAPGKERELVASISGSGGRTYYADSVKGRFTISRDNAKNTVYLQLNSQNPEDTAVYYCAADVRSYVASRSYRYDYWGQGNQVTVSS	low polyreactivity
QVQLVESGGGLVQAGGSLRLSCADSGRIIYLNAMGLYRQAPGKERELVAAITRSAASTHYADSVKGRFTISRDNAKNTVYLQMNSLKPEDTAVYYCNARGYPKSWRYSRGYEYWGQGTQVTVSS	low polyreactivity
QVQLVESGGGLVQAGGSLRLSCAASGFIFESTAMGWYRQAPGKERELVAGISNGDSTDYADSVKGRFTISRDNAKNTCYLQMNSLNPEDTAVYYCNAELWYSPYSQTTVRYDYWGQVTQVTVSS	low polyreactivity
QVQLVESGGGLVQAGGSLRLSCAASGRIFLYYAMGWYRQAPGKERELVAAITSSGGGTYYADSVKGRFTISRDNAKNTVYLQMNSLKPLDTAVYYCAARRRSQWRYYYWGQGTQVTVSS	high polyreactivity
QVQIVESGGGLVQAGGSLRLSCAASGRTFKYYAMGWYRPAPGKERELVAAISYSGGSTYYADSVKGRFTISRDNAKNTVYLQMNSLKPEDTAVYYCAARFTRYYSGCDQKYDYWGQGTQVTVSS	high polyreactivity
QVQLVESGGGLVQAGGSLRLSCAASGIISSYYAMGWYRQAPGKERELVAAISKSGGSTDYADSVKGRFTISRDNAKNTVYLQMNSLKPEDTAVYYCAADAYWSYSTRYWFAYDYWGQGTQVTVSS	low polyreactivity
QVQLVESGGGLVQAGGSLRLSCAASGYTFTIYAMGWYRQAPGKERELVASISIDGSTYYADSVKGRFTISRDNAKNTVYLQMNSLKREDTAVYYCAADYYYYTPGFDYWGQGTQVTVSS	low polyreactivity
QVQLVETGGGLVQAGGSLRLSCAASGSTFYRNTKGCYRQAPGKEREFVAGISDRGTSTYYADSVKGRFTISRDNAKNTVYLQMNSLKPEDTAVYYCNKRSWPAYVHKYDYWGQGTQVTVSS	low polyreactivity
QVQLVESGGGLVQAGGSLRLSCAASGRIFASNAMGWYRPAPGKERELVAAIDQGGGSTYYADSVKGRFTISRDNAKNTVYLQMNSLKPEDTAVYYCAADYITAYPRLYNYWGQGTQVTVSS	low polyreactivity
QVQLVESGGGLVQAGGSLRLSCAASGLTFYYYVMGWYRQAPGKEREFVAAISRSGGSTYYADSVKGRFTISRDNAKNTVYLQMNSLKPEDTAVYYCASYTHDFGYKYWGQGTQVTVSS	high polyreactivity
QDQIVESGGGLVQAGGSLRLTCAASGLNIYDNMGWYRQAPGKERELVAAISSSGGSTSYADSVKGRFTISRDNAKNTFYVQMNSLKPEDTAVYYCAADSYPAYLGFVGFDYWGQGTQVTVSS	low polyreactivity
QVQLVESGGGLVQAGGSLRLSCAASGTFVLSAMGWYRPAPGKERELVAAISKTGRTYYADSVKGRFTISRDNAKNTVYLQMNSLKPEDTSVYYCAAQRFSKFGYWGQGTQVTVSS	high polyreactivity
QVQLVESGGRLVQAGGSLRLSCAASGRTFDYYDMGWYRQAPGKERELVAAITWGGGSTYYADSVKGRFSISRDNAKNTVYLQMNSLKPEDTAVYYCNADHFGWPWRVRIHEDDYWGQGTQVTVSS	low polyreactivity
QVQLVESGGGLVQAGGSLRLSCAASGFIFYRYTMGWYRQAPGKERELVAAITSAGSTYYADSVKGRFTISRDNAKNTVYLQMNSLKPEDTAVYYCNADSTWGGYGFDYWGQGTQVTVSS	low polyreactivity
QVQLVESGGGLVQAGGSLRLSCAASGRIVANAMGWYRQAPGKESELVAAITATYYADSVKGRFTISRDNAKNTVYLQMNSLKPEDTAVYYFNAYLSPKQPLSPPDPSFEGGYWGQGTQVTVSS	low polyreactivity
QVQLVESGGGLVQAGGSLRLSCAASGLIFWYYTMGWYRQAPGKESELVAAITIGGSTYYADSVKGRFTISRDNAKNTVYLQMNSLKPEDTAVYYCNTRRGRSPGGRYEYDYWGQGTQVTVSS	low polyreactivity

Sequence	polyreactivity (PSR sort gate)
QVQLVESGGGLVQAGGSLRLSCAASGITFKWNDMGWYRQAPGKEREFVAAITGSTGSTFYADSVKGRFTISRDNAKNTVYLQMISLKPEDTAVYYCAAGPWFYYWGQGTQVTVSS	low polyreactivity
QVQLVESGGGLVQAGGSLRLSCAASGRIFKSYAMGWYRQAPGIERELVAAIRSGGSTYYADSVKGRFTISRDNAKNTVYLQMNSLKPEYTAVYYCNRVTRTWKVTYHSWGQGTQVTVSS	high polyreactivity
QVQLVESGGGLVQAGGSLRLSCAASGIIFVTNDMGWYRQAPGKERELVATITWSGGSTYYADSVKGRFTISRDNAKNTVYLQMNSLKPEDSAVYYCAAESRYTWIHSRDYWGQGTQVTVSS	low polyreactivity
QVQLVESGGGLVQAGGSLRLSCAACGNTFTYYAMGLYRQAPGKERELVASISSGVSTNYADSVKGRFTISRDNAKNTLYLHINSLKPEDTAVYYCARGWSFSTRRFQHTRYYYWGQGTQVTVSS	high polyreactivity
QVQLVESGGGLVQAGGSLRLSCAASGRIVADYAMGWYRQAPGKERELVAAIRGSGGDTYYADSVKGRFTISRDNAKNTDYLQMNSLKPEDTAVYYCNAVDTYDLDNDYWGQGTQVTVSS	low polyreactivity
KVQLVESGRGLVQAGGSLLLICAASGSTFVDYAMGWYRQAPGKERELVAGINVSGGSTYYSDYVKGSFTISRDNSNNPVYLQMNSLNPEDTAVYYCAKVVSNRLALPAWDYNYWGQGTKVTVSS	low polyreactivity
QVQLVESGGGLVQAGGSLRLSCAASGSTFDIYAMGCYRQAPGKERELVAAITFSGGSTYADSVKGRFTISRDNAKNTVYFQMNSLKPEDTAVYYCAVDGGEFSSYGYWGQGTQVTVSS	low polyreactivity
QVQLVESGGGLVQAGGSLRLSCAASGRIFPIYAMGWYRQAPGKERELVATIRYSSGTTYYADSVKGRFTISRDNAKNTVYLQMNSLKPEDTAVYYCAADSQWAYISEYDYWGQGTQVTVSS	low polyreactivity
QVQLVESGGGLVQAGGSLRLSCAASGSIFRSNSMGWYRQAPGKERELVAAISSRGGSTYYADSVKGRFTISRDNAKNTVYLQMNSLKPEDTAVYYCYKDRYTVISYDEYDYWGQGTQVTVSS	high polyreactivity
QVQLVESGGGLVQAGGSLRLICAASGLTFTKYAMGWYRQAPGKERELVATITSGGSTNYADSVKGRFTISRDNAKNTVYLQMNSLKPEDTAVYYCNRDNYKWPYWEFDYWGQGTQVTVSS	high polyreactivity
QVQLVESGGGLVKAGGSLRLSCAAYGFTIVYYAMGWYIQEHGKERELVAAISATGGRTYYADSVKGRFTISRDNAKNTVYLQMNSLKPEDTAVYYCATRRRVLYGYDYWGQGTQVTVSS	high polyreactivity
QVQLVESGGGLVQAGGSLRLSCAASGFVWYTMGWYRQAPGKERELVADITYRGGSTYYADSVKGRFTISRDNAKNTVYLQMNSLKPEDTAVYYCAAKPHWYWRYEYWGQGTQVTVSS	high polyreactivity
QFQLVESGGGLVQAGGSLRLSCAASGLIFGAYDMGWYRQAPGKERELVAAITYSGGRTHYADSVKGRFTISRDNAKNTVYLQMNSLKPDDTAVYYCAAGSSHHFDYEGGYWGKGTQVTVSS	low polyreactivity
QVQLVETGGGLVQAGGSHRLSCAASVRTLYKNAMGWYRQEPGKERELVAAISVSGGRTYYADSVKGRFTISRDNAKNTVYFQMNSLKPEDTAVYYCATRLYPISKYGYWGQGTQVTVSS	high polyreactivity
QVQLVESGGGLVQAGGSLSLSCAASGSTFWVYAMGWYRQAPGKERELVATISRGGSTNYADSVKGRFTISRDNAKNTVYLQMNSLKPEDTAVYYCAAPRFYGYGYEYWGQGTQVTVSS	low polyreactivity
QVQLVESGGGLVQAGGSLRLSCAASGRTFRTNAMGWYRQEPGKERELVASITWRGDSTYYADSVKGRFTISRDNAKNTVYLQMNRLKPEDTAVYYCAAGGFYWGYLWGRYDYWGQGTQVTVSS	high polyreactivity
